Measured values from article PMC5118228 (EJNMMI Research, 2016).

Test: in vivo
Conditions: male, athymic nu/nu, mouse, iv, total radioactivity
[1] = 0.03 nmol, uptake in Red blood cell
[2] = 0.1 nmol, uptake in Red blood cell

For `C[C@@H](O)[C@H](NC(=O)[C@@H]1CSSC[C@H](NC(=O)[C@@H](Cc2ccccc2)NC(=O)CN2CCN(CC(=O)O)CCN(CC(=O)O)CCN(CC(=O)O)CC2)C(=O)N[C@@H](Cc2ccc(O)cc2)C(=O)N[C@H](Cc2c[nH]c3ccccc23)C(=O)N[C@@H](CCCCN)C(=O)N[C@@H]([C@@H](C)O)C(=O)N1)C(=O)O` [^111In-DOTATATE, metal not drawn], the tissue uptake at 10 min (0.03 nmol, uptake in Adrenals) was 3.4 ± 2.3 %ID/g, the tissue uptake at 0.5 h (0.03 nmol, uptake in Adrenals) was 4.7 ± 4.4 %ID/g and the tissue uptake at 1 h (0.03 nmol, uptake in Adrenals) was 4.6 ± 5.6 %ID/g. It also gave a tissue uptake at 0.05 h (0.03 nmol, uptake in Kidney) of 19.2 ± 8.4 %ID/g, a tissue uptake at 10 min (0.03 nmol, uptake in Kidney) of 16 ± 4.1 %ID/g and a tissue uptake at 0.5 h (0.03 nmol, uptake in Kidney) of 14 ± 4.1 %ID/g. For the same compound, the tissue uptake at 1 h (0.03 nmol, uptake in Kidney) was 12.3 ± 3.7 %ID/g, the tissue uptake at 0.05 h (0.03 nmol, uptake in Muscles) was 1.2 ± 0.7 %ID/g and the tissue uptake at 10 min (0.03 nmol, uptake in Muscles) was 0.9 ± 0.3 %ID/g. It also gave a tissue uptake at 0.5 h (0.03 nmol, uptake in Muscles) of 0.3 ± 0.1 %ID/g, a tissue uptake at 1 h (0.03 nmol, uptake in Muscles) of 0.07 %ID/g and a tissue uptake at 0.05 h (0.03 nmol, uptake in Pancreas) of 6 ± 1.5 %ID/g. For the same compound, the tissue uptake at 10 min (0.03 nmol, uptake in Pancreas) was 1.6 ± 1.4 %ID/g, the tissue uptake at 0.5 h (0.03 nmol, uptake in Pancreas) was 4.7 ± 2.7 %ID/g and the tissue uptake at 1 h (0.03 nmol, uptake in Pancreas) was 9.2 ± 1.9 %ID/g. For the same compound, the tissue uptake at 0.05 h (0.03 nmol, uptake in Pituitary) was 1 ± 1.7 %ID/g, the tissue uptake at 10 min (0.03 nmol, uptake in Pituitary) was 0.2 ± 0.2 %ID/g and the tissue uptake at 0.5 h (0.03 nmol, uptake in Pituitary) was 0.5 ± 0.8 %ID/g. The tissue uptake at 1 h (0.03 nmol, uptake in Pituitary) was less than 0.05 %ID/g, the tissue uptake at 0.05 h (0.03 nmol, uptake in Plasma) was 13.3 ± 1.6 %ID/g and the tissue uptake at 0.5 h (0.03 nmol, uptake in Plasma) was 3.2 ± 1 %ID/g. For the same compound, the tissue uptake at 1 h (0.03 nmol, uptake in Plasma) was 0.8 ± 0.1 %ID/g, the tissue uptake at 0.05 h [1] was 3.5 ± 2.5 %ID/g and the tissue uptake at 0.5 h [1] was 0.6 ± 0.2 %ID/g. The tissue uptake at 1 h [1] was 0.3 ± 0.08 %ID/g, the tissue uptake at 0.05 h (0.03 nmol, uptake in Stomach) was 5.6 ± 0.7 %ID/g and the tissue uptake at 10 min (0.03 nmol, uptake in Stomach) was 7.9 ± 2.2 %ID/g. It also gave a tissue uptake at 0.5 h (0.03 nmol, uptake in Stomach) of 8.1 ± 1.3 %ID/g, a tissue uptake at 1 h (0.03 nmol, uptake in Stomach) of 7.6 ± 1.1 %ID/g and a tissue uptake at 0.05 h (0.03 nmol, uptake in Tumor) of 6.9 ± 3.6 %ID/g. For the same compound, the tissue uptake at 10 min (0.03 nmol, uptake in Tumor) was 10.7 ± 2.5 %ID/g, the tissue uptake at 0.5 h (0.03 nmol, uptake in Tumor) was 15.1 ± 7.5 %ID/g and the tissue uptake at 1 h (0.03 nmol, uptake in Tumor) was 12.8 ± 6.7 %ID/g. It also gave a tissue uptake at 1 h (0.1 nmol, uptake in Adrenals) of 1.3 ± 0.2 %ID/g, a tissue uptake at 0.05 h (0.1 nmol, uptake in Kidney) of 21.6 ± 3.9 %ID/g and a tissue uptake at 10 min (0.1 nmol, uptake in Kidney) of 15.6 ± 3.1 %ID/g. For the same compound, the tissue uptake at 0.5 h (0.1 nmol, uptake in Kidney) was 16.1 ± 5.5 %ID/g, the tissue uptake at 1 h (0.1 nmol, uptake in Kidney) was 16.7 ± 8.6 %ID/g and the tissue uptake at 0.05 h (0.1 nmol, uptake in Muscles) was 1.5 ± 0.6 %ID/g. It also gave a tissue uptake at 10 min (0.1 nmol, uptake in Muscles) of 0.7 ± 0.2 %ID/g, a tissue uptake at 0.5 h (0.1 nmol, uptake in Muscles) of 0.4 ± 0.4 %ID/g and a tissue uptake at 1 h (0.1 nmol, uptake in Muscles) of 0.3 ± 0.4 %ID/g. For the same compound, the tissue uptake at 0.05 h (0.1 nmol, uptake in Pancreas) was 11.9 ± 4 %ID/g, the tissue uptake at 10 min (0.1 nmol, uptake in Pancreas) was 9.9 ± 4.2 %ID/g and the tissue uptake at 0.5 h (0.1 nmol, uptake in Pancreas) was 7 ± 1.4 %ID/g. The tissue uptake at 1 h (0.1 nmol, uptake in Pancreas) was 4.7 ± 0.5 %ID/g, the tissue uptake at 0.05 h (0.1 nmol, uptake in Pituitary) was 0.3 ± 0.2 %ID/g and the tissue uptake at 10 min (0.1 nmol, uptake in Pituitary) was 0.2 ± 0.09 %ID/g. For the same compound, the tissue uptake at 0.5 h (0.1 nmol, uptake in Pituitary) was 0.1 ± 0.2 %ID/g, the tissue uptake at 1 h (0.1 nmol, uptake in Pituitary) was less than 0.05 %ID/g and the tissue uptake at 0.05 h (0.1 nmol, uptake in Plasma) was 13.2 ± 1.7 %ID/g. For the same compound, the tissue uptake at 10 min (0.1 nmol, uptake in Plasma) was 8.6 ± 1.4 %ID/g, the tissue uptake at 0.5 h (0.1 nmol, uptake in Plasma) was 3.4 ± 1.7 %ID/g and the tissue uptake at 1 h (0.1 nmol, uptake in Plasma) was 1 ± 0.6 %ID/g. For the same compound, the tissue uptake at 0.05 h [2] was 5.2 ± 0.7 %ID/g, the tissue uptake at 0.5 h [2] was 0.8 ± 0.4 %ID/g and the tissue uptake at 1 h [2] was 0.2 ± 0.1 %ID/g. For the same compound, the tissue uptake at 0.05 h (0.1 nmol, uptake in Stomach) was 4.4 ± 1.1 %ID/g, the tissue uptake at 10 min (0.1 nmol, uptake in Stomach) was 5.2 ± 1.1 %ID/g and the tissue uptake at 0.5 h (0.1 nmol, uptake in Stomach) was 6.3 ± 2 %ID/g. The tissue uptake at 1 h (0.1 nmol, uptake in Stomach) was 6 ± 1.8 %ID/g, the tissue uptake at 10 min (0.1 nmol, uptake in Tumor) was 11.8 ± 3.6 %ID/g and the tissue uptake at 1 h (0.1 nmol, uptake in Tumor) was 9.9 ± 2.6 %ID/g. For the same compound, the tissue uptake at 0.05 h (0.3 nmol, uptake in Adrenals) was 2.3 ± 0.6 %ID/g, the tissue uptake at 10 min (0.3 nmol, uptake in Adrenals) was 1.2 ± 0.4 %ID/g and the tissue uptake at 0.5 h (0.3 nmol, uptake in Adrenals) was 1 ± 0.1 %ID/g. It also gave a tissue uptake at 1 h (0.3 nmol, uptake in Adrenals) of 0.8 ± 0.3 %ID/g, a tissue uptake at 0.05 h (0.3 nmol, uptake in Kidney) of 17.2 ± 5.4 %ID/g and a tissue uptake at 10 min (0.3 nmol, uptake in Kidney) of 12.8 ± 2.2 %ID/g. For the same compound, the tissue uptake at 0.5 h (0.3 nmol, uptake in Kidney) was 16.9 ± 6.3 %ID/g, the tissue uptake at 1 h (0.3 nmol, uptake in Kidney) was 13.4 ± 2.8 %ID/g and the tissue uptake at 0.05 h (0.3 nmol, uptake in Muscles) was 1.1 ± 0.1 %ID/g. For the same compound, the tissue uptake at 10 min (0.3 nmol, uptake in Muscles) was 0.5 ± 0.1 %ID/g, the tissue uptake at 0.5 h (0.3 nmol, uptake in Muscles) was 0.3 ± 0.1 %ID/g and the tissue uptake at 1 h (0.3 nmol, uptake in Muscles) was less than 0.05 %ID/g. The tissue uptake at 10 min (0.3 nmol, uptake in Pancreas) was 3.5 ± 0.3 %ID/g, the tissue uptake at 0.5 h (0.3 nmol, uptake in Pancreas) was 3.2 ± 0.4 %ID/g and the tissue uptake at 1 h (0.3 nmol, uptake in Pancreas) was 3 ± 1 %ID/g.
